Starred links: 1 amine or outer side, 2 acyl side, 3 side chain; linkers in the order of their positions; H or OH if unused. Non-standard residues stand in square brackets, D forms with d. Groups on a side chain read outwards from the residue. No end group written: not given here. *: point of attachment. C18 diacid = O=C(O)CCCCCCCCCCCCCCCCC(=O)*; γGlu = O=C(O)[C@H](CCC(=O)[*:2])N[*:1]; εLys = N[C@@H](CCCCN[*:1])C(=O)[*:2]; AEEA = NCCOCCOCC(=O)O; Aib = CC(C)(N)C(=O)O
T1: human GIP receptor (human, UniProt P48546 22-466)
T1 sequence (looked up): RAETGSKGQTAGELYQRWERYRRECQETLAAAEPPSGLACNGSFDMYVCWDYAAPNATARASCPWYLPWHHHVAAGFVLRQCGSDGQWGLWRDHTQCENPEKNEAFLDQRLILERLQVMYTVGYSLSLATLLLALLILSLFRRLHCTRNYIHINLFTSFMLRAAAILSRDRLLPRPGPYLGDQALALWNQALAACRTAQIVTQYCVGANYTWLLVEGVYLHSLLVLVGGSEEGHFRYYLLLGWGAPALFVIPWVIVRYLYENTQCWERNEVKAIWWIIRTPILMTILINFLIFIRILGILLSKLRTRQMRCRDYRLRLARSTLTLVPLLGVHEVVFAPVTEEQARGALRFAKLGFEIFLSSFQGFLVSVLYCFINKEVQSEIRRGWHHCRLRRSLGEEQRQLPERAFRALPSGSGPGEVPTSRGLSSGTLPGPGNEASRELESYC


Tests used:
human GLP-1 receptor = human GLP-1 receptor (human, UniProt P43220 24-463); experiment: cell-based or functional assay
human GIP receptor = target: T1, human GIP receptor; experiment: cell-based or functional assay

Binder	hGLP-1R, CRE Luc 0% HSA EC50 (pM) (human GLP-1 receptor)	hGLP-1R, CRE Luc 1% HSA EC50 (pM) (human GLP-1 receptor)	hGIPR, CRE Luc 0% HSA EC50 (pM) (human GIP receptor)	hGIPR, CRE Luc 1% HSA EC50 (pM) (human GIP receptor)
Y[Aib]EGTFTSDYSILLEK([εLys-εLys-γGlu-C18 diacid])QAAREFIEWLLAGGPSSGAPPPS-OH (N-terminus assumed; SMILES CC[C@H](C)[C@H](NC(=O)[C@H](Cc1ccccc1)NC(=O)[C@H](CCC(=O)O)NC(=O)[C@H](CCCNC(=N)N)NC(=O)[C@H](C)NC(=O)[C@H](C)NC(=O)[C@H](CCC(N)=O)NC(=O)[C@H](CCCCNC(=O)[C@@H](N)CCCCNC(=O)[C@@H](N)CCCCNC(=O)CC[C@H](NC(=O)CCCCCCCCCCCCCCCCC(=O)O)C(=O)O)NC(=O)[C@H](CCC(=O)O)NC(=O)[C@H](CC(C)C)NC(=O)[C@H](CC(C)C)NC(=O)[C@@H](NC(=O)[C@H](CO)NC(=O)[C@H](Cc1ccc(O)cc1)NC(=O)[C@H](CC(=O)O)NC(=O)[C@H](CO)NC(=O)[C@@H](NC(=O)[C@H](Cc1ccccc1)NC(=O)[C@@H](NC(=O)CNC(=O)[C@H](CCC(=O)O)NC(=O)C(C)(C)NC(=O)[C@@H](N)Cc1ccc(O)cc1)[C@@H](C)O)[C@@H](C)O)[C@@H](C)CC)C(=O)N[C@@H](CCC(=O)O)C(=O)N[C@@H](Cc1c[nH]c2ccccc12)C(=O)N[C@@H](CC(C)C)C(=O)N[C@@H](CC(C)C)C(=O)N[C@@H](C)C(=O)NCC(=O)NCC(=O)N1CCC[C@H]1C(=O)N[C@@H](CO)C(=O)N[C@@H](CO)C(=O)NCC(=O)N[C@@H](C)C(=O)N1CCC[C@H]1C(=O)N1CCC[C@H]1C(=O)N1CCC[C@H]1C(=O)N[C@@H](CO)C(=O)O) [Compound No. 31]	4.2 pM	202 pM	4.7 pM	188 pM
Y[Aib]EGTFTSDYSK([εLys-εLys-γGlu-C18 diacid])LLEEQAAREFIEWLLAGGPSSGAPPPS-OH (N-terminus assumed; SMILES CC[C@H](C)[C@H](NC(=O)[C@H](Cc1ccccc1)NC(=O)[C@H](CCC(=O)O)NC(=O)[C@H](CCCNC(=N)N)NC(=O)[C@H](C)NC(=O)[C@H](C)NC(=O)[C@H](CCC(N)=O)NC(=O)[C@H](CCC(=O)O)NC(=O)[C@H](CCC(=O)O)NC(=O)[C@H](CC(C)C)NC(=O)[C@H](CC(C)C)NC(=O)[C@H](CCCCNC(=O)[C@@H](N)CCCCNC(=O)[C@@H](N)CCCCNC(=O)CC[C@H](NC(=O)CCCCCCCCCCCCCCCCC(=O)O)C(=O)O)NC(=O)[C@H](CO)NC(=O)[C@H](Cc1ccc(O)cc1)NC(=O)[C@H](CC(=O)O)NC(=O)[C@H](CO)NC(=O)[C@@H](NC(=O)[C@H](Cc1ccccc1)NC(=O)[C@@H](NC(=O)CNC(=O)[C@H](CCC(=O)O)NC(=O)C(C)(C)NC(=O)[C@@H](N)Cc1ccc(O)cc1)[C@@H](C)O)[C@@H](C)O)C(=O)N[C@@H](CCC(=O)O)C(=O)N[C@@H](Cc1c[nH]c2ccccc12)C(=O)N[C@@H](CC(C)C)C(=O)N[C@@H](CC(C)C)C(=O)N[C@@H](C)C(=O)NCC(=O)NCC(=O)N1CCC[C@H]1C(=O)N[C@@H](CO)C(=O)N[C@@H](CO)C(=O)NCC(=O)N[C@@H](C)C(=O)N1CCC[C@H]1C(=O)N1CCC[C@H]1C(=O)N1CCC[C@H]1C(=O)N[C@@H](CO)C(=O)O) [Compound No. 40]	6.4 pM	334 pM	9.5 pM	501 pM
Y[Aib]EGTFTSDYSIYLEEQAAREFINWLLAGGPSK([εLys-εLys-γGlu-C18 diacid])GAPPPS-OH (N-terminus assumed; SMILES CC[C@H](C)[C@H](NC(=O)[C@H](Cc1ccccc1)NC(=O)[C@H](CCC(=O)O)NC(=O)[C@H](CCCNC(=N)N)NC(=O)[C@H](C)NC(=O)[C@H](C)NC(=O)[C@H](CCC(N)=O)NC(=O)[C@H](CCC(=O)O)NC(=O)[C@H](CCC(=O)O)NC(=O)[C@H](CC(C)C)NC(=O)[C@H](Cc1ccc(O)cc1)NC(=O)[C@@H](NC(=O)[C@H](CO)NC(=O)[C@H](Cc1ccc(O)cc1)NC(=O)[C@H](CC(=O)O)NC(=O)[C@H](CO)NC(=O)[C@@H](NC(=O)[C@H](Cc1ccccc1)NC(=O)[C@@H](NC(=O)CNC(=O)[C@H](CCC(=O)O)NC(=O)C(C)(C)NC(=O)[C@@H](N)Cc1ccc(O)cc1)[C@@H](C)O)[C@@H](C)O)[C@@H](C)CC)C(=O)N[C@@H](CC(N)=O)C(=O)N[C@@H](Cc1c[nH]c2ccccc12)C(=O)N[C@@H](CC(C)C)C(=O)N[C@@H](CC(C)C)C(=O)N[C@@H](C)C(=O)NCC(=O)NCC(=O)N1CCC[C@H]1C(=O)N[C@@H](CO)C(=O)N[C@@H](CCCCNC(=O)[C@@H](N)CCCCNC(=O)[C@@H](N)CCCCNC(=O)CC[C@H](NC(=O)CCCCCCCCCCCCCCCCC(=O)O)C(=O)O)C(=O)NCC(=O)N[C@@H](C)C(=O)N1CCC[C@H]1C(=O)N1CCC[C@H]1C(=O)N1CCC[C@H]1C(=O)N[C@@H](CO)C(=O)O) [Compound No. 42]	2.3 pM	83.5 pM	5.9 pM	306 pM
Y[Aib]EGTFTSDYSILLEK([AEEA-AEEA-γGlu-C18 diacid])QAAREFIEWLLAGGPSSGAPPPS-OH (N-terminus assumed; SMILES CC[C@H](C)[C@H](NC(=O)[C@H](Cc1ccccc1)NC(=O)[C@H](CCC(=O)O)NC(=O)[C@H](CCCNC(=N)N)NC(=O)[C@H](C)NC(=O)[C@H](C)NC(=O)[C@H](CCC(N)=O)NC(=O)[C@H](CCCCNC(=O)COCCOCCNC(=O)COCCOCCNC(=O)CC[C@H](NC(=O)CCCCCCCCCCCCCCCCC(=O)O)C(=O)O)NC(=O)[C@H](CCC(=O)O)NC(=O)[C@H](CC(C)C)NC(=O)[C@H](CC(C)C)NC(=O)[C@@H](NC(=O)[C@H](CO)NC(=O)[C@H](Cc1ccc(O)cc1)NC(=O)[C@H](CC(=O)O)NC(=O)[C@H](CO)NC(=O)[C@@H](NC(=O)[C@H](Cc1ccccc1)NC(=O)[C@@H](NC(=O)CNC(=O)[C@H](CCC(=O)O)NC(=O)C(C)(C)NC(=O)[C@@H](N)Cc1ccc(O)cc1)[C@@H](C)O)[C@@H](C)O)[C@@H](C)CC)C(=O)N[C@@H](CCC(=O)O)C(=O)N[C@@H](Cc1c[nH]c2ccccc12)C(=O)N[C@@H](CC(C)C)C(=O)N[C@@H](CC(C)C)C(=O)N[C@@H](C)C(=O)NCC(=O)NCC(=O)N1CCC[C@H]1C(=O)N[C@@H](CO)C(=O)N[C@@H](CO)C(=O)NCC(=O)N[C@@H](C)C(=O)N1CCC[C@H]1C(=O)N1CCC[C@H]1C(=O)N1CCC[C@H]1C(=O)N[C@@H](CO)C(=O)O) [Compound No. 32]	5 pM	982 pM	7.1 pM	679 pM
